Test results reported in publication PMC12817480, “Phospho‐Proteomics Identifies D‐Group MAP Kinases as Substrates of the Arabidopsis Tyrosine Phosphatase RLPH2” (Plant Direct, 2026).

What was measured:
Conditions in all cases: both partners purified
[1] = molecular target: T1, MPK9‐V5‐His6, full‐length, activated/phosphorylated (MPK9^TDY) (Arabidopsis thaliana, UniProt Q9LV37 1-510, phospho-threonine and phospho-tyrosine of the activation loop TDY motif (autophosphorylated; dual phosphorylated pTxpY)); assay: far-Western, overlay or dot blot; purified activated MPKs dotted onto nitrocellulose, blocked, overlaid with purified RLPH2 (1.5 μg/mL), detected with anti‐RLPH2 antibody; in triplicate
T1 construct: MAP kinase 9 (MPK9), Arabidopsis thaliana, At3g18040, synthesized gene codon optimized for bacteria, in pDEST42; Printed as MPK9-V5-His6 (tags written after the name); also called MAP kinase 9; ATMPK9; source: E. coli BL21 (DE3) CodonPlus‐RIL, purified (Ni‐NTA), then autophosphorylated with Mg‐ATP
T1 sequence (looked up): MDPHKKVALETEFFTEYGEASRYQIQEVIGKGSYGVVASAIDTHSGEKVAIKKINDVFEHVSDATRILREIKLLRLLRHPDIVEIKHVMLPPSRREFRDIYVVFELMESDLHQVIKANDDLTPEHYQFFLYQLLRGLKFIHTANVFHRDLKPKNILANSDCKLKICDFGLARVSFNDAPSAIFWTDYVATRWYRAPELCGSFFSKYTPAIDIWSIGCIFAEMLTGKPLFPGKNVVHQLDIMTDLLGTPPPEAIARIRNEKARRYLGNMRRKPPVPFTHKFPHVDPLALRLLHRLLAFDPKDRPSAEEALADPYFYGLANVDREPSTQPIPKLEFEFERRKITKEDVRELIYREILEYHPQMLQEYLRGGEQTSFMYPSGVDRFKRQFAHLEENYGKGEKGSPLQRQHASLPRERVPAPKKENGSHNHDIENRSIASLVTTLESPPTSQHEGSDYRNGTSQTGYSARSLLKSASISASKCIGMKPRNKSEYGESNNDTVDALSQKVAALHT

[2] = molecular target: T2, Purified MPK9‐V5‐His6 with the RVSF motif maintained (MPK9^RVSF), as used with PP1 (Arabidopsis thaliana, UniProt Q9LV37 1-510); assay: far-Western, overlay or dot blot; MPK9^RVXF and MPK9^RASA run on SDS‐PAGE, blotted to nitrocellulose, probed with PP1 (TOPP) isoforms (2 μg/mL) for 4 h in TBS plus 5% milk powder; PP1 detected with anti‐TOPP antibody
T2 construct: MAP kinase 9 (MPK9), Arabidopsis thaliana, At3g18040, synthesized gene codon optimized for bacteria, in pDEST42; Same construct as m2; also called MPK9^RVXF; MPK9^RVxF; source: E. coli BL21 (DE3) CodonPlus‐RIL, purified (Ni‐NTA)
T2 sequence (looked up): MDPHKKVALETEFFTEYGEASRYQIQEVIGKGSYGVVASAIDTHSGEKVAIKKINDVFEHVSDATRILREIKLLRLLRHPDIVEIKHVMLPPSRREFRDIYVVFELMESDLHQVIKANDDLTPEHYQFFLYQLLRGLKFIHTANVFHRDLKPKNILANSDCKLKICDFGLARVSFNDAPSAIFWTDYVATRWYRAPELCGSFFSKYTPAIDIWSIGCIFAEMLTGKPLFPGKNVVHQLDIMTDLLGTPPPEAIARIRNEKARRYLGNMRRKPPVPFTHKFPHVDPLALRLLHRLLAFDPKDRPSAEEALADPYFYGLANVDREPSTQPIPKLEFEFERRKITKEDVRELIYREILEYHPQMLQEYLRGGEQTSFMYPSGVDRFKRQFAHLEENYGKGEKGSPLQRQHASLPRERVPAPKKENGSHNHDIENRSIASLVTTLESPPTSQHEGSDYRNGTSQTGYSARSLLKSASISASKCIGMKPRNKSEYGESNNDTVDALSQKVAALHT

[3] = molecular target: T2, Purified MPK9‐V5‐His6 with the RVSF …; assay: pull-down; TOPP5 (1 μg) and MPK9^RVXF or MPK9^RASA (5 μg) incubated 1 h at RT, then with BSA‐blocked Ni‐NTA 1 h at RT; washed with 50 mM HEPES pH 7.5, 300 mM NaCl, 0.1% Tween 20; western blot (V5, pan‐TOPP)

Binder	binding result [2]	further results
Arabidopsis thaliana Rhizobiales‐like phosphatase 2 (RLPH2‐V5‐His6) (enzyme, UniProt Q9SR62 1-309, looked up, Rhizobiales-like phosphatase 2 (RLPH2), Arabidopsis thaliana; Printed as RLPH2-V5-His6 (tags written after the name); source: bacterially expressed, purified (as in Uhrig et al. 2016)) MAQKPRTVICVGDIHGYISKLNNLWLNLQSAIDPSDFSSALVIFLGDYCDRGPETRKVIDFLISLPEKHPDQTHVFLAGNHDFAFSGFLGLLPRPSDGSDLKDTWKEYSKSEETEGWYTGEGFEDMHLQGRRWAGKIKATFNSVKGMAYKGSIYDAGSTFESYGVPHGSSDLMKAVPESHKKFLTNMVWVHEEDDVCIETEEGLKHCKLIAVHAGLEKGNNVEEQLKLLRAKDTSISKIQHLSGRKNVWDIPQELDDKHTVVVSGHHGKLHIDGMRLIIDEGGGFPDKPVAAIVLPSKKIIRDTDNLSS		binding result [1]: binds
Arabidopsis PP1 isoform 8 (TOPP8) (enzyme, Arabidopsis thaliana, UniProt O82734 1-324, looked up, Type one protein phosphatase 8 (TOPP8), PP1 catalytic subunit, Arabidopsis thaliana; source: recombinant, purified on microcystin‐Sepharose (as in Templeton et al. 2011)) MMTSMEGMVEKGVLDDIIRRLLEGKGGKQVQLSESEIRQLCFNARQIFLSQPNLLDLHAPIRICGDIHGQYQDLLRLFEYGGYPPSANYLFLGDYVDRGKQSLETICLLLAYKIRYPSKIYLLRGNHEDAKINRIYGFYDECKRRFNVRLWKVFTDCFNCLPVAALIDEKILCMHGGLSPDLDNLNQIREIQRPIEIPDSGLLCDLLWSDPDQKIEGWADSDRGISCTFGADKVAEFLDKNDLDLICRGHQVVEDGYEFFAKRRLVTIFSAPNYGGEFDNAGALLSVDESLVCSFEIMKPAPASSSHPLKKDFHNRTLGYNLSA	binds	
Arabidopsis PP1 isoform 9 (TOPP9) (enzyme, Arabidopsis thaliana, UniProt Q9M9W3 1-318, looked up, Type one protein phosphatase 9 (TOPP9), PP1 catalytic subunit, Arabidopsis thaliana; source: recombinant, purified on microcystin‐Sepharose (as in Templeton et al. 2011)) MMTSMEGMMEMGVLDDIIRRLLEGKGGKQVQLSEVEIRQLCVNARQIFLSQPNLLELHAPIRICGDIHGQYQDLLRLFEYGGYPPSANYLFLGDYVDRGKQSLETICLLLAYKIRYPSKIFLLRGNHEDAKINRIYGFYDECKRRFNVRLWKIFTDCFNCLPVAALIDEKILCMHGGLSPELENLGQIREIQRPTEIPDNGLLCDLLWSDPDQKNEGWTDSDRGISCTFGADVVADFLDKNDLDLICRGHQVVEDGYEFFAKRRLVTIFSAPNYGGEFDNAGALLSVDQSLVCSFEILKPAPASSTNPLKKVPKMGKS	binds	
Arabidopsis PP1 isoform 5 (TOPP5) (enzyme, Arabidopsis thaliana, UniProt P48485 1-312, looked up, Type one protein phosphatase 5 (TOPP5), PP1 catalytic subunit, Arabidopsis thaliana; also called AtPP1; source: recombinant, purified on microcystin‐Sepharose (as in Templeton et al. 2011)) MAQQGQGSMDPAVLDDIIRRLLDYRNPKAGTKQAMLNDSEIRQLCFVSREIFLQQPCLLELAAPVKICGDIHGQYSDLLRLFEYGGFPPAANYLFLGDYVDRGKQSLETICLLLAYKIKYPENFFLLRGNHECASINRIYGFYDECKRRFNVKLWKVFTDTFNCLPVAAVIDEKILCMHGGLSPELINVEQIKNIERPTDVPDAGLLCDLLWSDPSKDVKGWGMNDRGVSYTFGADKVAEFLIKNDMDLVCRAHQVVEDGYEFFADRQLVTMFSAPNYCGEFDNAGALMSVDESLMCSFQILKPVDRRSRFF		binding result [3]: binds
Arabidopsis PP1 isoform 1 (TOPP1) (enzyme, Arabidopsis thaliana, UniProt P30366 1-318, looked up, Type one protein phosphatase 1 (TOPP1), PP1 catalytic subunit, Arabidopsis thaliana; source: recombinant, purified on microcystin‐Sepharose (as in Templeton et al. 2011)) MAEKPAQEQEQKRAMEPAVLDDIIRRLVEFRNTRPGSGKQVHLSEGEIRQLCAVSKEIFLQQPNLLELEAPIKICGDIHGQYSDLLRLFEYGGFPPEANYLFLGDYVDRGKQSLETICLLLAYKIKYPENFFLLRGNHESASINRIYGFYDECKRRFNVRLWKIFTDCFNCLPVAALIDDRILCMHGGISPELKSLDQIRNIARPMDIPESGLVCDLLWSDPSGDVGWGMNDRGVSYTFGADKVAEFLEKHDMDLICRAHQVVEDGYEFFAERQLVTVFSAPNYCGEFDNAGAMMSIDESLMCSFQILKPSEKKSPFL	binds	
Arabidopsis PP1 isoform 2 (TOPP2) (enzyme, Arabidopsis thaliana, UniProt P48482 1-312, looked up, Type one protein phosphatase 2 (TOPP2), PP1 catalytic subunit, Arabidopsis thaliana; source: recombinant, purified on microcystin‐Sepharose (as in Templeton et al. 2011)) MAQQGQGSMDPAALDDIIRRLLDYRNPKPGTKQAMLNESEIRQLCIVSREIFLQQPNLLELEAPIKICGDIHGQYSDLLRLFEYGGFPPTANYLFLGDYVDRGKQSLETICLLLAYKIKYPENFFLLRGNHECASINRIYGFYDECKRRFSVRLWKVFTDSFNCLPVAAVIDDKILCMHGGLSPDLTNVEQIKNIKRPTDVPDSGLLCDLLWSDPSKDVKGWGMNDRGVSYTFGPDKVAEFLIKNDMDLICRAHQVVEDGYEFFADRQLVTIFSAPNYCGEFDNAGAMMSVDESLMCSFQILKPADRKPRFL	binds	
Arabidopsis PP1 isoform 3 (TOPP3) (enzyme, Arabidopsis thaliana, UniProt P48483 1-322, looked up, Type one protein phosphatase 3 (TOPP3), PP1 catalytic subunit, Arabidopsis thaliana; source: recombinant, purified on microcystin‐Sepharose (as in Templeton et al. 2011)) MEDSVVDDVIKRLLGAKNGKTTKQVQLTEAEIKHLCSTAKQIFLTQPNLLELEAPIKICGDTHGQFSDLLRLFEYGGYPPAANYLFLGDYVDRGKQSVETICLLLAYKIKYKENFFLLRGNHECASINRIYGFYDECKKRYSVRVWKIFTDCFNCLPVAALIDEKILCMHGGLSPELKHLDEIRNIPRPADIPDHGLLCDLLWSDPDKDIEGWGENDRGVSYTFGADKVEEFLQTHDLDLICRAHQVVEDGYEFFANRQLVTIFSAPNYCGEFDNAGAMMSVDDSLTCSFQILKASEKKGNFGFGKNAGRRGTPPRKGGGKG	binds	
Arabidopsis PP1 isoform 4 (TOPP4) (enzyme, Arabidopsis thaliana, UniProt P48484 1-321, looked up, Type one protein phosphatase 4 (TOPP4), PP1 catalytic subunit, Arabidopsis thaliana; source: recombinant, purified on microcystin‐Sepharose (as in Templeton et al. 2011)) MATTTTTQGQQTAIDSAVLDDIIRRLTEVRLARPGKQVQLSEAEIKQLCTTARDIFLQQPNLLELEAPIKICGDIHGQYSDLLRLFEYGGFPPSANYLFLGDYVDRGKQSLETICLLLAYKIKYPGNFFLLRGNHECASINRIYGFYDECKRRFNVRVWKVFTDCFNCLPVAALIDDKILCMHGGLSPDLDHLDEIRNLPRPTMIPDTGLLCDLLWSDPGKDVKGWGMNDRGVSYTFGPDKVSEFLTKHDLDLVCRAHQVVEDGYEFFADRQLVTVFSAPNYCGEFDNAGAMMSVDENLMCSFQILKPAEKKTKFMMSTKI	binds	
